Results published in the supplement of paper PMC5998384.

Assays:
HeLa Kyoto [1] = assay: solubility change mitosis vs G1/S (difference of NP-40 vs SDS log2 ratios) (log2 ratio difference); higher = more soluble in mitosis
HeLa Kyoto [2] = assay: melting temperature (median over replicates), in situ; higher = more thermally stable
HeLa Kyoto [3] = assay: solubility in G1/S (NP-40 vs SDS abundance) (log2 ratio); higher = more soluble; settings: cell cycle stage: G1/S
HeLa Kyoto [4] = assay: thermal stability score vs G1/S (z-score of summed log2 fold changes over temperatures); higher = more thermally stable than in G1/S
[5] = cell cycle stage: early G1 (4.5 h after nocodazole release)
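For melting temperature (median over replicates), in situ in this document: HeLa Kyoto cells synchronized by double thymidine or nocodazole block, proteins quantified by TMT10plex mass spectrometry, three independent biological replicates.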
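For solubility change mitosis vs G1/S (difference of NP-40 vs SDS log2 ratios) in this document: synchronized HeLa Kyoto cells (double thymidine block for G1/S, nocodazole release for mitosis), protein amounts in NP-40 versus SDS lysates quantified by mass spectrometry, three biological replicates.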
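For solubility in G1/S (NP-40 vs SDS abundance) in this document: HeLa Kyoto cells arrested at G1/S by double thymidine block, proteins quantified by TMT10plex mass spectrometry in mild NP-40 versus SDS extracts, three biological replicates.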
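For thermal stability score vs G1/S (z-score of summed log2 fold changes over temperatures) in this document: synchronized HeLa Kyoto cells, proteins quantified by TMT10plex mass spectrometry, three biological replicates, mitosis taken 0.5 h after nocodazole release, G1/S directly after double thymidine block.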

Sequence | solubility change mitosis (log2) (HeLa Kyoto [1]) | melting temperature (HeLa Kyoto [2]; cell cycle stage: G1/S) | melting temperature (HeLa Kyoto [2]; cell cycle stage: mitosis) | solubility in G1/S (log2) (HeLa Kyoto [3]) | thermal stability score (HeLa Kyoto [4]; [5]) | thermal stability score (HeLa Kyoto [4]; cell cycle stage: mitosis)
MAMDQVNALCEQLVKAVTVMMDPNSTQRYRLEALKFCEEFKEKCPICVPCGLRLAEKTQVAIVRHFGLQILEHVVKFRWNGMSRLEKVYLKNSVMELIANGTLNILEEENHIKDALSRIVVEMIKREWPQHWPDMLIELDTLSKQGETQTELVMFILLRLAEDVVTFQTLPPQRRRDIQQTLTQNMERIFSFLLNTLQENVNKYQQVKTDTSQESKAQANCRVGVAALNTLAGYIDWVSMSHITAENCKLLEILCLLLNEQELQLGAAECLLIAVSRKGKLEDRKPLMVLFGDVAMHYILSAAQTADGGGLVEKHYVFLKRLCQVLCALGNQLCALLGADSDVETPSNFGKYLESFLAFTTHPSQFLRSSTQMTWGALFRHEILSRDPLLLAIIPKYLRASMTNLVKMGFPSKTDSPSCEYSRFDFDSDEDFNAFFNSSRAQQGEVMRLACRLDPKTSFQMAGEWLKYQLSTFLDAGSVNSCSAVGTGEGSLCSVFSPSFVQWEAMTLFLESVITQMFRTLNREEIPVNDGIELLQMVLNFDTKDPLILSCVLTNVSALFPFVTYRPEFLPQVFSKLFSSVTFETVEESKAPRTRAVRNVRRHACSSIIKMCRDYPQLVLPNFDMLYNHVKQLLSNELLLTQMEKCALMEALVLISNQFKNYERQKVFLEELMAPVASIWLSQDMHRVLSDVDAFIAYVGTDQKSCDPGLEDPCGLNRARMSFCVYSILGVVKRTCWPTDLEEAKAGGFVVGYTSSGNPIFRNPCTEQILKLLDNLLALIRTHNTLYAPEMLAKMAEPFTKALDMLDAEKSAILGLPQPLLELNDSPVFKTVLERMQRFFSTLYENCFHILGKAGPSMQQDFYTVEDLATQLLSSAFVNLNNIPDYRLRPMLRVFVKPLVLFCPPEHYEALVSPILGPLFTYLHMRLSQKWQVINQRSLLCGEDEAADENPESQEMLEEQLVRMLTREVMDLITVCCVSKKGADHSSAPPADGDDEEMMATEVTPSAMAELTDLGKCLMKHEDVCTALLITAFNSLAWKDTLSCQRTTSQLCWPLLKQVLSGTLLADAVTWLFTSVLKGLQMHGQHDGCMASLVHLAFQIYEALRPRYLEIRAVMEQIPEIQKDSLDQFDCKLLNPSLQKVADKRRKDQFKRLIAGCIGKPLGEQFRKEVHIKNLPSLFKKTKPMLETEVLDNDGGGLATIFEP [XPO5] | -0.175 | 49 °C | 48.9 °C | -0.158 | 0.753 | 2.34
MTLDVGPEDELPDWAAAKEFYQKYDPKDVIGRGVSSVVRRCVHRATGHEFAVKIMEVTAERLSPEQLEEVREATRRETHILRQVAGHPHIITLIDSYESSSFMFLVFDLMRKGELFDYLTEKVALSEKETRSIMRSLLEAVSFLHANNIVHRDLKPENILLDDNMQIRLSDFGFSCHLEPGEKLRELCGTPGYLAPEILKCSMDETHPGYGKEVDLWACGVILFTLLAGSPPFWHRRQILMLRMIMEGQYQFSSPEWDDRSSTVKDLISRLLQVDPEARLTAEQALQHPFFERCEGSQPWNLTPRQRFRVAVWTVLAAGRVALSTHRVRPLTKNALLRDPYALRSVRHLIDNCAFRLYGHWVKKGEQQNRAALFQHRPPGPFPIMGPEEEGDSAAITEDEAVLVLG [PHKG2] | -0.298 | 50.4 °C | 50.7 °C | -0.0283 | -0.266 | 0.0815
MSVQVVSAAAAAKVPEVELKDLSPSEAESQLGLSTAAVGAMAPPAGGGDPEAPAPAAERPPVPGPGSGPAAALSPAAGKVPQASAMKRSDPHHQHQRHRDGGEALVSPDGTVTEAPRTVKKQIQFADQKQEFNKRPTKIGRRSLSRSISQSSTDSYSSAASYTDSSDDETSPRDKQQKNSKGSSDFCVKNIKQAEFGRREIEIAEQEMPALMALRKRAQGEKPLAGAKIVGCTHITAQTAVLMETLGALGAQCRWAACNIYSTLNEVAAALAESGFPVFAWKGESEDDFWWCIDRCVNVEGWQPNMILDDGGDLTHWIYKKYPNMFKKIKGIVEESVTGVHRLYQLSKAGKLCVPAMNVNDSVTKQKFDNLYCCRESILDGLKRTTDMMFGGKQVVVCGYGEVGKGCCAALKAMGSIVYVTEIDPICALQACMDGFRLVKLNEVIRQVDIVITCTGNKNVVTREHLDRMKNSCIVCNMGHSNTEIDVASLRTPELTWERVRSQVDHVIWPDGKRIVLLAEGRLLNLSCSTVPTFVLSITATTQALALIELYNAPEGRYKQDVYLLPKKMDEYVASLHLPTFDAHLTELTDEQAKYLGLNKNGPFKPNYYRY [AHCYL2] | -0.0168 | 60.1 °C | 57.5 °C | -0.105 | -1.59 | -3.95
MAVAPRLFGGLCFRFRDQNPEVAVEGRLPISHSCVGCRRERTAMATVAANPAAAAAAVAAAAAVTEDREPQHEELPGLDSQWRQIENGESGRERPLRAGESWFLVEKHWYKQWEAYVQGGDQDSSTFPGCINNATLFQDEINWRLKEGLVEGEDYVLLPAAAWHYLVSWYGLEHGQPPIERKVIELPNIQKVEVYPVELLLVRHNDLGKSHTVQFSHTDSIGLVLRTARERFLVEPQEDTRLWAKNSEGSLDRLYDTHITVLDAALETGQLIIMETRKKDGTWPSAQLHVMNNNMSEEDEDFKGQPGICGLTNLGNTCFMNSALQCLSNVPQLTEYFLNNCYLEELNFRNPLGMKGEIAEAYADLVKQAWSGHHRSIVPHVFKNKVGHFASQFLGYQQHDSQELLSFLLDGLHEDLNRVKKKEYVELCDAAGRPDQEVAQEAWQNHKRRNDSVIVDTFHGLFKSTLVCPDCGNVSVTFDPFCYLSVPLPISHKRVLEVFFIPMDPRRKPEQHRLVVPKKGKISDLCVALSKHTGISPERMMVADVFSHRFYKLYQLEEPLSSILDRDDIFVYEVSGRIEAIEGSREDIVVPVYLRERTPARDYNNSYYGLMLFGHPLLVSVPRDRFTWEGLYNVLMYRLSRYVTKPNSDDEDDGDEKEDDEEDKDDVPGPSTGGSLRDPEPEQAGPSSGVTNRCPFLLDNCLGTSQWPPRRRRKQLFTLQTVNSNGTSDRTTSPEEVHAQPYIAIDWEPEMKKRYYDEVEAEGYVKHDCVGYVMKKAPVRLQECIELFTTVETLEKENPWYCPSCKQHQLATKKLDLWMLPEILIIHLKRFSYTKFSREKLDTLVEFPIRDLDFSEFVIQPQNESNPELYKYDLIAVSNHYGGMRDGHYTTFACNKDSGQWHYFDDNSVSPVNENQIESKAAYVLFYQRQDVARRLLSPAGSSGAPASPACSSPPSSEFMDVN [USP11] | -0.0102 | 47.3 °C | 48.1 °C | -0.0353 | 2.48 | 4.39
MVLTLGESWPVLVGRRFLSLSAADGSDGSHDSWDVERVAEWPWLSGTIRAVSHTDVTKKDLKVCVEFDGESWRKRRWIEVYSLLRRAFLVEHNLVLAERKSPEISERIVQWPAITYKPLLDKAGLGSITSVRFLGDQQRVFLSKDLLKPIQDVNSLRLSLTDNQIVSKEFQALIVKHLDESHLLKGDKNLVGSEVKIYSLDPSTQWFSATVINGNPASKTLQVNCEEIPALKIVDPSLIHVEVVHDNLVTCGNSARIGAVKRKSSENNGTLVSKQAKSCSEASPSMCPVQSVPTTVFKEILLGCTAATPPSKDPRQQSTPQAANSPPNLGAKIPQGCHKQSLPEEISSCLNTKSEALRTKPDVCKAGLLSKSSQIGTGDLKILTEPKGSCTQPKTNTDQENRLESVPQALTGLPKECLPTKASSKAELEIANPPELQKHLEHAPSPSDVSNAPEVKAGVNSDSPNNCSGKKVEPSALACRSQNLKESSVKVDNESCCSRSNNKIQNAPSRKSVLTDPAKLKKLQQSGEAFVQDDSCVNIVAQLPKCRECRLDSLRKDKEQQKDSPVFCRFFHFRRLQFNKHGVLRVEGFLTPNKYDNEAIGLWLPLTKNVVGIDLDTAKYILANIGDHFCQMVISEKEAMSTIEPHRQVAWKRAVKGVREMCDVCDTTIFNLHWVCPRCGFGVCVDCYRMKRKNCQQGAAYKTFSWLKCVKSQIHEPENLMPTQIIPGKALYDVGDIVHSVRAKWGIKANCPCSNRQFKLFSKPASKEDLKQTSLAGEKPTLGAVLQQNPSVLEPAAVGGEAASKPAGSMKPACPASTSPLNWLADLTSGNVNKENKEKQPTMPILKNEIKCLPPLPPLSKSSTVLHTFNSTILTPVSNNNSGFLRNLLNSSTGKTENGLKNTPKILDDIFASLVQNKTTSDLSKRPQGLTIKPSILGFDTPHYWLCDNRLLCLQDPNNKSNWNVFRECWKQGQPVMVSGVHHKLNSELWKPESFRKEFGEQEVDLVNCRTNEIITGATVGDFWDGFEDVPNRLKNEKEPMVLKLKDWPPGEDFRDMMPSRFDDLMANIPLPEYTRRDGKLNLASRLPNYFVRPDLGPKMYNAYGLITPEDRKYGTTNLHLDVSDAANVMVYVGIPKGQCEQEEEVLKTIQDGDSDELTIKRFIEGKEKPGALWHIYAAKDTEKIREFLKKVSEEQGQENPADHDPIHDQSWYLDRSLRKRLHQEYGVQGWAIVQFLGDVVFIPAGAPHQVHNLYSCIKVAEDFVSPEHVKHCFWLTQEFRYLSQTHTNHEDKLQVKNVIYHAVKDAVAMLKASESSFGKP [KDM3A] | -0.158 | 48.6 °C | 50.4 °C | 0.0198 | -0.474 | 0.304
MAAAGGAEGRRAALEAAAAAAPERGGGSCVLCCGDLEATALGRCDHPVCYRCSTKMRVLCEQRYCAVCREELRQVVFGKKLPAFATIPIHQLQHEKKYDIYFADGKVYALYRQLLQHECPRCPELPPFSLFGDLEQHMRRQHELFCCRLCLQHLQIFTYERKWYSRKDLARHRMQGDPDDTSHRGHPLCKFCDERYLDNDELLKHLRRDHYFCHFCDSDGAQDYYSDYAYLREHFREKHFLCEEGRCSTEQFTHAFRTEIDLKAHRTACHSRSRAEARQNRHIDLQFSYAPRHSRRNEGVVGGEDYEEVDRYSRQGRVARAGTRGAQQSRRGSWRYKREEEDREVAAAVRASVAAQQQEEARRSEDQEEGGRPKKEEAAARGPEDPRGPRRSPRTQGEGPGPKETSTNGPVSQEAFSVTGPAAPGCVGVPGALPPPSPKLKDEDFPSLSASTSSSCSTAATPGPVGLALPYAIPARGRSAFQEEDFPALVSSVPKPGTAPTSLVSAWNSSSSSKKVAQPPLSAQATGSGQPTRKAGKGSRGGRKGGPPFTQEEEEDGGPALQELLSTRPTGSVSSTLGLASIQPSKVGKKKKVGSEKPGTTLPQPPPATCPPGALQAPEAPASRAEGPVAVVVNGHTEGPAPARSAPKEPPGLPRPLGSFPCPTPQEDFPALGGPCPPRMPPPPGFSAVVLLKGTPPPPPPGLVPPISKPPPGFSGLLPSPHPACVPSPATTTTTKAPRLLPAPRAYLVPENFRERNLQLIQSIRDFLQSDEARFSEFKSHSGEFRQGLISAAQYYKSCRDLLGENFQKVFNELLVLLPDTAKQQELLSAHTDFCNREKPLSTKSKKNKKSAWQATTQQAGLDCRVCPTCQQVLAHGDASSHQALHAARDDDFPSLQAIARIIT [ZNF598] | 0.108 | 51.6 °C | 51.1 °C | -0.223 | -1.86 | -0.526
MRLLRRRHMPLRLAMVGCAFVLFLFLLHRDVSSREEATEKPWLKSLVSRKDHVLDLMLEAMNNLRDSMPKLQIRAPEAQQTLFSINQSCLPGFYTPAELKPFWERPPQDPNAPGADGKAFQKSKWTPLETQEKEEGYKKHCFNAFASDRISLQRSLGPDTRPPECVDQKFRRCPPLATTSVIIVFHNEAWSTLLRTVYSVLHTTPAILLKEIILVDDASTEEHLKEKLEQYVKQLQVVRVVRQEERKGLITARLLGASVAQAEVLTFLDAHCECFHGWLEPLLARIAEDKTVVVSPDIVTIDLNTFEFAKPVQRGRVHSRGNFDWSLTFGWETLPPHEKQRRKDETYPIKSPTFAGGLFSISKSYFEHIGTYDNQMEIWGGENVEMSFRVWQCGGQLEIIPCSVVGHVFRTKSPHTFPKGTSVIARNQVRLAEVWMDSYKKIFYRRNLQAAKMAQEKSFGDISERLQLREQLHCHNFSWYLHNVYPEMFVPDLTPTFYGAIKNLGTNQCLDVGENNRGGKPLIMYSCHGLGGNQYFEYTTQRDLRHNIAKQLCLHVSKGALGLGSCHFTGKNSQVPKDEEWELAQDQLIRNSGSGTCLTSQDKKPAMAPCNPSDPHQLWLFV [GALNT6] | -0.117 | 53.6 °C | 53.2 °C | 0.0486 | 4 | 5.54
